# Laboratory results: the supplement of paper PMC9112550, “Optimization of the antimicrobial peptide Bac7 by deep mutational scanning” (BMC Biology, 2022)
# Test system: Escherichia coli TOP10
# Experiment: shrunken log2 fold change of peptide-encoding DNA abundance (4.5 h post-induction vs induction); higher = less antimicrobial activity (less host growth inhibition)
# Details: time post-induction: 4.5 h; library: site-saturation at positions 5, 18, 19, 20
# 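Note: peptides expressed intracellularly from a pBAD plasmid library in pooled LB shake-flask culture, induced with 0.3% L-arabinose, DNA abundance read by NGS, three biological replicates, DESeq2 with apeglm shrinkage.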
row,Sequence,shrunken log2 fold change
1,RRIRDRPPRLPRPRPRPELEPRP,0.05
2,RRIRYRPPRLPRPRPRPVTYPRP,-0.41
3,RRIRARPPRLPRPRPRPGPPPRP,0.736
4,RRIRTRPPRLPRPRPRPSKFPRP,-0.624
5,RRIRQRPPRLPRPRPRPHVLPRP,0.0625
6,RRIRKRPPRLPRPRPRPVEKPRP,-0.0124
7,RRIRDRPPRLPRPRPRPHWHPRP,-0.192
8,RRIRHRPPRLPRPRPRPCMPPRP,0.0401
9,RRIRSRPPRLPRPRPRPFIKPRP,-0.275
10,RRIRWRPPRLPRPRPRPNAMPRP,0.123
11,RRIRKRPPRLPRPRPRPYPCPRP,-0.034
12,RRIRDRPPRLPRPRPRPQMNPRP,-0.315
13,RRIRERPPRLPRPRPRPRRVPRP,0.447
14,RRIRGRPPRLPRPRPRPNTKPRP,-0.066
15,RRIRKRPPRLPRPRPRPYWHPRP,-0.684
16,RRIRFRPPRLPRPRPRPGEEPRP,0.0793
17,RRIRSRPPRLPRPRPRPSVSPRP,-0.0446
18,RRIRMRPPRLPRPRPRPLCEPRP,0.653
19,RRIRGRPPRLPRPRPRPYWRPRP,-0.104
20,RRIRNRPPRLPRPRPRPNEFPRP,-0.692
21,RRIRFRPPRLPRPRPRPCAGPRP,-0.177
22,RRIRQRPPRLPRPRPRPCWEPRP,-0.126
23,RRIRARPPRLPRPRPRPSHFPRP,-0.0734
24,RRIRLRPPRLPRPRPRPADYPRP,-0.0944
25,RRIRRRPPRLPRPRPRPESWPRP,1.12

row,Sequence,shrunken log2 fold change
1,RRIRPRPPRLPRPRPRPTESPRP,-0.041
2,RRIRHRPPRLPRPRPRPFMNPRP,-0.0862
3,RRIRNRPPRLPRPRPRPHQGPRP,-0.0861
4,RRIRVRPPRLPRPRPRPTVMPRP,0.126
5,RRIRARPPRLPRPRPRPTSQPRP,0.211
6,RRIRLRPPRLPRPRPRPTFPPRP,0.131
7,RRIRNRPPRLPRPRPRPLNTPRP,-0.413
8,RRIRERPPRLPRPRPRPKEIPRP,-0.357
9,RRIRRRPPRLPRPRPRPVQPPRP,0.669
10,RRIRFRPPRLPRPRPRPRTCPRP,-0.0542
11,RRIRCRPPRLPRPRPRPRSIPRP,-0.0603
12,RRIRTRPPRLPRPRPRPSWFPRP,-0.343
13,RRIRQRPPRLPRPRPRPNIDPRP,-0.516
14,RRIRCRPPRLPRPRPRPMTGPRP,-0.103
15,RRIRPRPPRLPRPRPRPKLDPRP,0.0519
16,RRIRERPPRLPRPRPRPRMHPRP,0.0795
17,RRIRCRPPRLPRPRPRPHWRPRP,0.382
18,RRIRVRPPRLPRPRPRPSWMPRP,-0.139
19,RRIRNRPPRLPRPRPRPKCYPRP,-0.0478
20,RRIRQRPPRLPRPRPRPEVVPRP,0.196
21,RRIRCRPPRLPRPRPRPAGIPRP,-0.0496
22,RRIRCRPPRLPRPRPRPKTDPRP,-0.0884
23,RRIRHRPPRLPRPRPRPFMGPRP,-0.103
24,RRIRVRPPRLPRPRPRPPYHPRP,-0.284
25,RRIRLRPPRLPRPRPRPYSSPRP,-0.203

row,Sequence,shrunken log2 fold change
1,RRIRARPPRLPRPRPRPMEWPRP,0.259
2,RRIRMRPPRLPRPRPRPWESPRP,0.109
3,RRIRQRPPRLPRPRPRPEKGPRP,-0.017
4,RRIRRRPPRLPRPRPRPNELPRP,0.457
5,RRIRERPPRLPRPRPRPWSWPRP,0.103
6,RRIRRRPPRLPRPRPRPYNEPRP,-0.103
7,RRIRSRPPRLPRPRPRPEFEPRP,0.731
8,RRIRARPPRLPRPRPRPCMTPRP,0.591
9,RRIRERPPRLPRPRPRPGSDPRP,-0.369
10,RRIRIRPPRLPRPRPRPNLNPRP,-0.237
11,RRIRWRPPRLPRPRPRPIMGPRP,0.0656
12,RRIRNRPPRLPRPRPRPIICPRP,-0.0922
13,RRIRMRPPRLPRPRPRPIGCPRP,0.176
14,RRIRSRPPRLPRPRPRPNTQPRP,-0.274
15,RRIRWRPPRLPRPRPRPPRGPRP,0.584
16,RRIRCRPPRLPRPRPRPLHHPRP,-0.469
17,RRIRPRPPRLPRPRPRPFEMPRP,0.0143
18,RRIRYRPPRLPRPRPRPRLAPRP,0.299
19,RRIRCRPPRLPRPRPRPPELPRP,0.643
20,RRIRTRPPRLPRPRPRPYVGPRP,-0.689
21,RRIRTRPPRLPRPRPRPGMEPRP,0.013
22,RRIRTRPPRLPRPRPRPEYPPRP,-0.449
23,RRIRGRPPRLPRPRPRPPDAPRP,1.45
24,RRIRARPPRLPRPRPRPCSLPRP,-0.272
25,RRIRTRPPRLPRPRPRPRVSPRP,0.0622
